Where two headings read alike, the source gives them in different places.
Columns and labels:
[1] = molecular target: HfqFL WT (Escherichia coli, UniProt P0A6X3 1-102); assay: EMSA
[2] = molecular target: HfqFL F42S (Escherichia coli, UniProt P0A6X3 1-102, F42S); assay: fluorescence polarization
[3] = molecular target: HfqFL Y25A (Escherichia coli, UniProt P0A6X3 1-102, Y25A); assay: fluorescence polarization
[4] = molecular target: T1, Hfq65 R16A/R17A (Escherichia coli, UniProt P0A6X3 1-65, R16A;R17A); assay: NMR titration
[5] = molecular target: T1, Hfq65 R16A/R17A; assay: NMR titration; remark: listed apart in the source
[6] = molecular target: T2, Hfq65 (Escherichia coli, UniProt P0A6X3 1-65); assay: X-ray crystallography
[7] = molecular target: T2, Hfq65; assay: X-ray crystallography; remark: listed apart in the source

GGGAACAACAAGAAGUUAAGGCGGGGCAAAAAAUA (ssRNA) [rpoS-AA]: binds [1].

AACAACAAG (ssRNA) [rpoS-AC]: binds [2].

AAAAAAA (ssRNA) [A7]: binds [2].

AUUUUUUA (ssRNA) [AU6A]: binds [3].

AACAACAAG (ssRNA) [rpoS-AC (unlabeled)]: binds [4].

AUUUUUUA (ssRNA) [AU6A (unlabeled)]: binds [5]; binds [6].

AAAAAAA (ssRNA) [A7 (unlabeled)]: binds [7].

Source: article PMC3675490
